In article PMC4183563, “Protospacer Adjacent Motif (PAM)-Distal Sequences Engage CRISPR Cas9 DNA Target Cleavage”:
Where a chain is given by its changes, count along the chain named.

B1: p53 [Exon 7] 55 bp duplex + cr20 + tracrRNA (mixed)
DNA 1: TCCACTACAAGTACATGTGTAATAGCTCCTGCATGGGGGGCATGAACCGCCGACC
DNA 2: GGTCGGCGGTTCATGCCCCCCATGCAGGAGCTATTACACATGTACTTGTAGTGGA
B2: OT#7 probe + cr20 + tracrRNA (mixed)
DNA 1: B1 DNA 1 with T20G, T23C
DNA 2: B1 DNA 2 with A33G, A36C

Assays:
Cas9 (wild type) [1] = biological target: T1, Cas9 (wild type) (Streptococcus pyogenes, UniProt Q99ZW2 1-1368); assay: EMSA; 20 nM crRNA cr20, 20 nM tracrRNA; EMSA: 1 nM 32P-dsDNA, 10 nM Cas9 (or titrated), 20 nM tracrRNA, 20 nM crRNA, 2.5 ug/ml heparin, 5% native PAGE; buffer, pH and temperature as in cited ref 11 (not given); details: protein: recombinant; label: 32P on DNA; duplex DNA; crRNA:tracrRNA guide
T1 sequence (Q99ZW2 whole entry): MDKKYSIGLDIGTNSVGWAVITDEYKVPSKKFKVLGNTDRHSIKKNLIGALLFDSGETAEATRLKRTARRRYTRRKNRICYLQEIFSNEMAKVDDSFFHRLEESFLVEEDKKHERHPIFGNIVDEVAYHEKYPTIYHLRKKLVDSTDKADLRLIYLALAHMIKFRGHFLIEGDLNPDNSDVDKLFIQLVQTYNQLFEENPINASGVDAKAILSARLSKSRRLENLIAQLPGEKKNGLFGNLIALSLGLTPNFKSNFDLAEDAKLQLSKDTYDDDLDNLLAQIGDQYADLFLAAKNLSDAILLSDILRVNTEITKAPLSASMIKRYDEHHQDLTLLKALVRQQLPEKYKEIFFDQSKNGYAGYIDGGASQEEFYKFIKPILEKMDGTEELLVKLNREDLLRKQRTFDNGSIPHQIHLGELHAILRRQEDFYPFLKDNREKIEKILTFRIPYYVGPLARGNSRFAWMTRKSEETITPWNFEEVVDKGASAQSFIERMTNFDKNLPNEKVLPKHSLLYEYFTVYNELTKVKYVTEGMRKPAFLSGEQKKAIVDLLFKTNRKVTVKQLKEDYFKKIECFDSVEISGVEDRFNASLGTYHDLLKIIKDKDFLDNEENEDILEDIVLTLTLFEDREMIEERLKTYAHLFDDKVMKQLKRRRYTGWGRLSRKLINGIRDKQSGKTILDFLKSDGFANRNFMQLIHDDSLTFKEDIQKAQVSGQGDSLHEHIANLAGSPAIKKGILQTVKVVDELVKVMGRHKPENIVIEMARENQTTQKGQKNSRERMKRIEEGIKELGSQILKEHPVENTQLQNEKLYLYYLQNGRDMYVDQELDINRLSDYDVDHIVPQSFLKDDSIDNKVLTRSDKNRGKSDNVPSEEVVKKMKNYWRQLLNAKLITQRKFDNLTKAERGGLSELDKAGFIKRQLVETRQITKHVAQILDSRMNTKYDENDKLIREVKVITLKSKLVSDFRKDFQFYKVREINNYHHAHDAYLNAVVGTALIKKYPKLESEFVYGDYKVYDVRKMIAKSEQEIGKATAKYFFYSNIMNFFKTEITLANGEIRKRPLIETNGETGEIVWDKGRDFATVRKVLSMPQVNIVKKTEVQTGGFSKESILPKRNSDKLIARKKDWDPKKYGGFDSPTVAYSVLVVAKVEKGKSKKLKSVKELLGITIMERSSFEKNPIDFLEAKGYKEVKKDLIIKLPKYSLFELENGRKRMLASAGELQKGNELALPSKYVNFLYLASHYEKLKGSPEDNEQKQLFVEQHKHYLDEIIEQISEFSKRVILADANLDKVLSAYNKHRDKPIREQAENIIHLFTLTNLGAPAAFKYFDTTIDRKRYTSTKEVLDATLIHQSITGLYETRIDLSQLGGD

Cas9 (wild type) [2] = biological target: T1, Cas9 (wild type); assay: EMSA; cr20 + tracrRNA; EMSA: 1 nM 32P-dsDNA, 10 nM Cas9 (or titrated), 20 nM tracrRNA, 20 nM crRNA, 2.5 ug/ml heparin, 5% native PAGE; buffer, pH and temperature as in cited ref 11 (not given); details: protein: recombinant; label: 32P on DNA; duplex DNA; crRNA:tracrRNA guide

Row | Binder | Kd (Cas9 (wild type) [1]) | binding result (Cas9 (wild type) [2])
1 | B1 | 1.5 ± 0.1 nM | 
2 | B2 |  | binds
